Assay results from PMC12732654, “Thermodynamic Profiling Reveals DNA Polymerase Template Binding, Substrate Incorporation, and Exonuclease Function”.

What was measured:
[1] = target: T1, SS_01 (engineered Phi29 DNA polymerase) (bacteriophage Phi29 (engineered; …, UniProt P03680 1-575, M97K;A484E;K512Y); experiment: EMSA; 1 mM Mg2+; ITC: 1x PBS pH 7.5, 0.01% BSA, 0.05% Tween-20, with no metal, 1 mM MgCl2 or 1 mM CaCl2, 25 C, 5 uM SS_01; EMSA: 20 mM HEPES pH 7.5, 4 mM DTT, 1 mM metal chloride, 30 C 30 min, 100 nM DNA, 10 nM polymerase; conditions: protein: recombinant; hairpin, self-primed template
T1 sequence: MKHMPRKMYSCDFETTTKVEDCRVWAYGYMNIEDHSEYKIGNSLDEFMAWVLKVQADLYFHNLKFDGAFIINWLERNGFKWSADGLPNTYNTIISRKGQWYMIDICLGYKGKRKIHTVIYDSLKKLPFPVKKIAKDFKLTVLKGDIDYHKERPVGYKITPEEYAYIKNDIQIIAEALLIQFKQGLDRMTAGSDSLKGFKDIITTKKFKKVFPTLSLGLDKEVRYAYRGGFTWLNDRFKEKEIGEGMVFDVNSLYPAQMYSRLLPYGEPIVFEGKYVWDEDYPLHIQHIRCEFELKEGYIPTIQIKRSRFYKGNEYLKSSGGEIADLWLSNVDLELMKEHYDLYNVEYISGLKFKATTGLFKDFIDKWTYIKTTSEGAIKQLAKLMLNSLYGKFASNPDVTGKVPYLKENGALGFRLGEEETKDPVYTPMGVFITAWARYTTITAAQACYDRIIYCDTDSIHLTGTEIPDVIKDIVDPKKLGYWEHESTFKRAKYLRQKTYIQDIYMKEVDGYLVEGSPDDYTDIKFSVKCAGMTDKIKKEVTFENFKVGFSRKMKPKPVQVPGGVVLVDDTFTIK

[2] = target: T1, SS_01 (engineered Phi29 DNA polymerase); experiment: ITC; Ca2+; exothermic, smaller heat than Mg2+; ITC: 1x PBS pH 7.5, 0.01% BSA, 0.05% Tween-20, with no metal, 1 mM MgCl2 or 1 mM CaCl2, 25 C, 5 uM SS_01; EMSA: 20 mM HEPES pH 7.5, 4 mM DTT, 1 mM metal chloride, 30 C 30 min, 100 nM DNA, 10 nM polymerase; conditions: protein: recombinant; single strand
[3] = target: T1, SS_01 (engineered Phi29 DNA polymerase); experiment: ITC; no Mg2+; 10 uM DNA into 5 uM protein; ITC: 1x PBS pH 7.5, 0.01% BSA, 0.05% Tween-20, with no metal, 1 mM MgCl2 or 1 mM CaCl2, 25 C, 5 uM SS_01; EMSA: 20 mM HEPES pH 7.5, 4 mM DTT, 1 mM metal chloride, 30 C 30 min, 100 nM DNA, 10 nM polymerase; conditions: protein: recombinant; 63 bp duplex, 5' overhang 7 nt on the 70-mer template
[4] = target: T1, SS_01 (engineered Phi29 DNA polymerase); experiment: ITC; 1 mM Mg2+ (Mg2+/Ca2+ comparison set); ITC: 1x PBS pH 7.5, 0.01% BSA, 0.05% Tween-20, with no metal, 1 mM MgCl2 or 1 mM CaCl2, 25 C, 5 uM SS_01; EMSA: 20 mM HEPES pH 7.5, 4 mM DTT, 1 mM metal chloride, 30 C 30 min, 100 nM DNA, 10 nM polymerase; conditions: protein: recombinant; 63 bp duplex, 5' overhang 7 nt on the 70-mer template
[5] = target: T1, SS_01 (engineered Phi29 DNA polymerase); experiment: ITC; 1 mM Ca2+; ITC: 1x PBS pH 7.5, 0.01% BSA, 0.05% Tween-20, with no metal, 1 mM MgCl2 or 1 mM CaCl2, 25 C, 5 uM SS_01; EMSA: 20 mM HEPES pH 7.5, 4 mM DTT, 1 mM metal chloride, 30 C 30 min, 100 nM DNA, 10 nM polymerase; conditions: protein: recombinant; 63 bp duplex, 5' overhang 7 nt on the 70-mer template
[6] = target: T1, SS_01 (engineered Phi29 DNA polymerase); experiment: ITC; 1 mM Mg2+; 10 uM DNA into 5 uM protein; ITC: 1x PBS pH 7.5, 0.01% BSA, 0.05% Tween-20, with no metal, 1 mM MgCl2 or 1 mM CaCl2, 25 C, 5 uM SS_01; EMSA: 20 mM HEPES pH 7.5, 4 mM DTT, 1 mM metal chloride, 30 C 30 min, 100 nM DNA, 10 nM polymerase; conditions: protein: recombinant; 63 bp duplex, 5' overhang 7 nt on the 70-mer template

B1: Seq99A hairpin primed template (structured_DNA)
DNA: TTTTTGCGCTCGAGATCTCCGTAAGGAGATCTCGAGCGCGGGACTACTACTGGGATCATCATAGCCACCTCAGCTGCACGTAAGTGCAGCTGAGGTGGC
[1]
  binding result: binds

## TCCTAACGAGATTAGTTTTGCTGTT (ssDNA) [unmodified oligonucleotide (non-PS)]
[2]
  binding result: binds

B2: 63/70-mer primed template (dsDNA)
DNA 1: TACGCAGCGTACATGCTCGTGACTGGGATAACCGTGCCGTTTGCCGACTTTCGCAGCCGTCCA
DNA 2: AAACCCTTGGACGGCTGCGAAAGTCGGCAAACGGCACGGTTATCCCAGTCACGAGCATGTACGCTGCGTA
modifications: three consecutive phosphorothioates at 3' terminus of 63-mer
[3]
  Kd: 129 ± 9.46 nM
[4]
  Kd: 239 ± 68.2 nM
[5]
  Kd: 317 ± 75.2 nM
[6]
  Kd: 243 ± 80.5 nM
